In the supplement of paper PMC9112550, “Optimization of the antimicrobial peptide Bac7 by deep mutational scanning” (BMC Biology, 2022):

Test system: Escherichia coli TOP10
Assay: shrunken log2 fold change of peptide-encoding DNA abundance (4.5 h post-induction vs induction); higher = less antimicrobial activity (less host growth inhibition)
Conditions: time post-induction: 4.5 h; library: site-saturation at positions 5, 18, 19, 20
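Also: peptides expressed intracellularly from a pBAD plasmid library in pooled LB shake-flask culture, induced with 0.3% L-arabinose, DNA abundance read by NGS, three biological replicates, DESeq2 with apeglm shrinkage.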

| Sequence | shrunken log2 fold change |
| --- | --- |
| RRIRRRPPRLPRPRPRPRDHPRP | 0.397 |
| RRIRYRPPRLPRPRPRPEWYPRP | -0.00146 |
| RRIRIRPPRLPRPRPRPSLFPRP | -0.66 |
| RRIRARPPRLPRPRPRPYTHPRP | -0.373 |
| RRIRPRPPRLPRPRPRPKDLPRP | -0.146 |
| RRIRFRPPRLPRPRPRPDCRPRP | -0.309 |
| RRIRKRPPRLPRPRPRPESMPRP | 0.603 |
| RRIRCRPPRLPRPRPRPVVQPRP | -0.235 |
| RRIRYRPPRLPRPRPRPFENPRP | -0.257 |
| RRIRERPPRLPRPRPRPQPGPRP | 0.0699 |
| RRIRDRPPRLPRPRPRPCQGPRP | 0.028 |
| RRIRYRPPRLPRPRPRPIWLPRP | -0.175 |
| RRIRVRPPRLPRPRPRPCVHPRP | -0.192 |
| RRIRVRPPRLPRPRPRPKASPRP | 0.0977 |
| RRIRFRPPRLPRPRPRPPFAPRP | 0.423 |
| RRIRCRPPRLPRPRPRPSAQPRP | 0.336 |
| RRIRPRPPRLPRPRPRPREPPRP | 0.0876 |
| RRIRGRPPRLPRPRPRPVTIPRP | 0.0068 |
| RRIRYRPPRLPRPRPRPNTHPRP | -1.02 |
| RRIRQRPPRLPRPRPRPNHQPRP | -0.0841 |
| RRIRQRPPRLPRPRPRPFYMPRP | -1.52 |
| RRIRLRPPRLPRPRPRPLDKPRP | -0.122 |
| RRIRGRPPRLPRPRPRPTNFPRP | -0.0941 |
| RRIRDRPPRLPRPRPRPGREPRP | 0.603 |
| RRIRTRPPRLPRPRPRPHEYPRP | -0.17 |

| Sequence | shrunken log2 fold change |
| --- | --- |
| RRIRMRPPRLPRPRPRPEKAPRP | 1.52 |
| RRIRCRPPRLPRPRPRPCTTPRP | -0.427 |
| RRIRHRPPRLPRPRPRPQWAPRP | -0.018 |
| RRIRHRPPRLPRPRPRPTCYPRP | -0.272 |
| RRIRARPPRLPRPRPRPFQGPRP | 0.0242 |
| RRIRARPPRLPRPRPRPMWQPRP | -0.00908 |
| RRIRWRPPRLPRPRPRPHEMPRP | 0.433 |
| RRIRNRPPRLPRPRPRPPMVPRP | -0.0558 |
| RRIRVRPPRLPRPRPRPTLSPRP | -0.0525 |
| RRIRLRPPRLPRPRPRPAPLPRP | 0.273 |
| RRIRPRPPRLPRPRPRPFGFPRP | 0.0716 |
| RRIRPRPPRLPRPRPRPGSDPRP | -0.00287 |
| RRIRFRPPRLPRPRPRPMTPPRP | -0.202 |
| RRIRCRPPRLPRPRPRPYATPRP | -0.294 |
| RRIRCRPPRLPRPRPRPKGIPRP | 0.0519 |
| RRIRHRPPRLPRPRPRPKSQPRP | -0.149 |
| RRIRHRPPRLPRPRPRPKVQPRP | 0.146 |
| RRIRSRPPRLPRPRPRPHERPRP | 7.23e-05 |
| RRIRPRPPRLPRPRPRPFVHPRP | -0.246 |
| RRIRNRPPRLPRPRPRPKPLPRP | -0.102 |
| RRIRKRPPRLPRPRPRPHGLPRP | 0.0425 |
| RRIRRRPPRLPRPRPRPYPMPRP | -0.187 |
| RRIRHRPPRLPRPRPRPVENPRP | -0.0355 |
| RRIRFRPPRLPRPRPRPEWQPRP | -0.00149 |
| RRIRYRPPRLPRPRPRPNYEPRP | -0.399 |

| Sequence | shrunken log2 fold change |
| --- | --- |
| RRIRIRPPRLPRPRPRPQMVPRP | -0.186 |
| RRIRARPPRLPRPRPRPFWPPRP | 0.412 |
| RRIRMRPPRLPRPRPRPWGWPRP | 1.08 |
| RRIRLRPPRLPRPRPRPCSYPRP | -0.259 |
| RRIRFRPPRLPRPRPRPDLTPRP | -0.181 |
| RRIRFRPPRLPRPRPRPTTPPRP | 0.352 |
| RRIRSRPPRLPRPRPRPTQMPRP | 0.502 |
| RRIRLRPPRLPRPRPRPYQPPRP | -0.582 |
| RRIRNRPPRLPRPRPRPCDMPRP | 0.0184 |
| RRIRKRPPRLPRPRPRPQTYPRP | -0.021 |
| RRIRWRPPRLPRPRPRPIIQPRP | -0.151 |
| RRIRNRPPRLPRPRPRPIFCPRP | -0.0368 |
| RRIRRRPPRLPRPRPRPWIGPRP | 0.0943 |
| RRIRIRPPRLPRPRPRPFVVPRP | -0.235 |
| RRIRSRPPRLPRPRPRPSATPRP | 0.168 |
| RRIRQRPPRLPRPRPRPSMRPRP | 0.0637 |
| RRIRVRPPRLPRPRPRPCPKPRP | -0.0457 |
| RRIRIRPPRLPRPRPRPSQKPRP | -0.187 |
| RRIRWRPPRLPRPRPRPWTFPRP | -0.146 |
| RRIRTRPPRLPRPRPRPAWNPRP | -0.0659 |
| RRIRIRPPRLPRPRPRPVCVPRP | -0.279 |
| RRIRIRPPRLPRPRPRPLQRPRP | -0.106 |
| RRIRWRPPRLPRPRPRPCCEPRP | -0.00563 |
| RRIRDRPPRLPRPRPRPYIPPRP | -0.456 |
| RRIRCRPPRLPRPRPRPQIIPRP | -0.853 |

| Sequence | shrunken log2 fold change |
| --- | --- |
| RRIRTRPPRLPRPRPRPQKFPRP | -0.632 |
| RRIRARPPRLPRPRPRPREQPRP | 0.825 |
| RRIRRRPPRLPRPRPRPMSDPRP | -0.00309 |
| RRIRQRPPRLPRPRPRPVVWPRP | 0.586 |
| RRIRFRPPRLPRPRPRPTRSPRP | 0.189 |
| RRIRQRPPRLPRPRPRPGLGPRP | 0.492 |
| RRIRERPPRLPRPRPRPWNEPRP | -0.351 |
| RRIRPRPPRLPRPRPRPIMDPRP | -0.00126 |
| RRIRWRPPRLPRPRPRPYYWPRP | -1.31 |
| RRIRGRPPRLPRPRPRPIHLPRP | -0.0773 |
| RRIRKRPPRLPRPRPRPDQVPRP | 0.0449 |
| RRIRGRPPRLPRPRPRPDEKPRP | 0.233 |
| RRIRDRPPRLPRPRPRPQCQPRP | -0.00822 |
| RRIRPRPPRLPRPRPRPINRPRP | -0.11 |
| RRIRYRPPRLPRPRPRPVYIPRP | -1.27 |
| RRIRMRPPRLPRPRPRPWGLPRP | 0.0219 |
| RRIRVRPPRLPRPRPRPWCRPRP | -0.396 |
| RRIRTRPPRLPRPRPRPPGIPRP | 0.264 |
| RRIRFRPPRLPRPRPRPCFVPRP | -0.578 |
| RRIRCRPPRLPRPRPRPNLNPRP | -0.575 |
| RRIRCRPPRLPRPRPRPGTKPRP | -0.404 |
| RRIRARPPRLPRPRPRPTYQPRP | -0.163 |
| RRIRGRPPRLPRPRPRPIRFPRP | 0.0151 |
| RRIRKRPPRLPRPRPRPMMGPRP | -0.0567 |
| RRIRHRPPRLPRPRPRPDSKPRP | -0.362 |

| Sequence | shrunken log2 fold change |
| --- | --- |
| RRIRNRPPRLPRPRPRPHMQPRP | -0.304 |
| RRIRGRPPRLPRPRPRPNNDPRP | 0.247 |
| RRIRSRPPRLPRPRPRPPDNPRP | -0.0697 |
| RRIRHRPPRLPRPRPRPQDWPRP | 0.0899 |
| RRIRCRPPRLPRPRPRPYFNPRP | -1.04 |
| RRIRMRPPRLPRPRPRPPCMPRP | 0.181 |
| RRIRMRPPRLPRPRPRPGSEPRP | 0.952 |
| RRIRYRPPRLPRPRPRPHYCPRP | -0.403 |
| RRIRPRPPRLPRPRPRPLQQPRP | 0.176 |
| RRIRDRPPRLPRPRPRPREPPRP | 0.112 |
| RRIRQRPPRLPRPRPRPLTIPRP | -0.375 |
| RRIRFRPPRLPRPRPRPVLNPRP | -0.282 |
| RRIRWRPPRLPRPRPRPYGLPRP | -0.23 |
| RRIRHRPPRLPRPRPRPAQLPRP | -0.3 |
| RRIRCRPPRLPRPRPRPLGLPRP | -0.0163 |
| RRIRERPPRLPRPRPRPMCYPRP | -0.403 |
| RRIRCRPPRLPRPRPRPDMPPRP | -0.253 |
| RRIRNRPPRLPRPRPRPHWDPRP | -0.136 |
| RRIRSRPPRLPRPRPRPIHDPRP | -0.128 |
| RRIRSRPPRLPRPRPRPCMSPRP | -0.348 |
| RRIRQRPPRLPRPRPRPFHTPRP | -0.0573 |
| RRIRWRPPRLPRPRPRPNCNPRP | -0.101 |
| RRIRARPPRLPRPRPRPFTLPRP | -0.543 |
| RRIRHRPPRLPRPRPRPSFKPRP | -0.6 |
| RRIRARPPRLPRPRPRPYHGPRP | -1.67 |

| Sequence | shrunken log2 fold change |
| --- | --- |
| RRIRRRPPRLPRPRPRPITEPRP | 0.0622 |
| RRIRERPPRLPRPRPRPCMQPRP | -0.133 |
| RRIRTRPPRLPRPRPRPNNNPRP | -0.451 |
| RRIRERPPRLPRPRPRPWMMPRP | -0.139 |
| RRIRWRPPRLPRPRPRPIRPPRP | -0.116 |
| RRIRCRPPRLPRPRPRPNVHPRP | -0.532 |
| RRIRNRPPRLPRPRPRPFPRPRP | 0.0857 |
| RRIRSRPPRLPRPRPRPFMAPRP | -0.497 |
| RRIRCRPPRLPRPRPRPHKYPRP | -0.618 |
| RRIRSRPPRLPRPRPRPPRMPRP | 0.274 |
| RRIRTRPPRLPRPRPRPATQPRP | 1.54 |
| RRIRGRPPRLPRPRPRPMQYPRP | -0.21 |
| RRIRERPPRLPRPRPRPMPVPRP | -0.107 |
| RRIRQRPPRLPRPRPRPIPGPRP | -0.309 |
| RRIRYRPPRLPRPRPRPMYCPRP | -0.00674 |
| RRIRDRPPRLPRPRPRPESQPRP | -0.0206 |
| RRIRTRPPRLPRPRPRPMDIPRP | -0.00738 |
| RRIRKRPPRLPRPRPRPVRAPRP | 1.27 |
| RRIRVRPPRLPRPRPRPIYMPRP | -0.438 |
| RRIRIRPPRLPRPRPRPLVEPRP | -0.0936 |
| RRIRMRPPRLPRPRPRPMIHPRP | -0.106 |
| RRIRMRPPRLPRPRPRPHPVPRP | 0.0384 |
| RRIRVRPPRLPRPRPRPGATPRP | 0.277 |
| RRIRCRPPRLPRPRPRPYRRPRP | -0.344 |
| RRIRVRPPRLPRPRPRPCDDPRP | -0.0369 |
